In US20190282673A1, “STAPHTAME ACTIVITY ON BIOFILMS” (priority 2016, published 2019):
Where “and” joins values, the source holds several entries; their conditions need not be identical. Equal values may be shown once. Read-outs that look alike come from different tables or passages of the source.

Columns and labels:
S. aureus biofilms = experiment: MBIC and checkerboard synergy on preformed biofilm (MTT assay); format: cell-based, Staphylococcus aureus; details: for MIC (drug alone) on biofilm: S. aureus MW2 72 h preformed biofilm, 6 hr treatment; for Activity on biofilms: S. aureus MW2 biofilm, drug alone
Method: […] LB supplemented with 50 μg/mL CaCl2 was used for daptomycin treatment wells. The contents of the well was aspirated out and discarded. The biofilm adhered to the wells was quantified by MTT assay as described above. The MBIC was defined as the minimum concentration of P128 or the drug showing no colour development. […] In each experiment, in addition to the combination MBIC, the MBIC of each drug was also determined individually. The fractional MBIC concentrations were determined by MTT dye method as described above. The FICI and synergy was also calculated in a similar manner.
The ability of P128 to inhibit growth of S. aureus in a preformed biofilm was measured by determining minimum biofilm inhibition concentration (MBIC), defined as minimum concentration showing growth inhibition in a MTT based assay. […] 11:226.
The assay was optimized using the standard S. aureus strain ATCC 29213. An overnight-grown culture of the strain was diluted 1:40 in LB broth 200 μL of diluted culture was aliquoted into microtiter plate wells. Microplates were placed in a shaker-incubator set to 37° C., and 100 rpm for 24 h followed by 48 h incubation under static conditions at 37° C. The contents of one set of four wells were aspirated and discarded. Wells were washed twice with 1×PBS and the presence of biofilm in the wells at the end of this 72-hour period was determined by metabolic dye-reduction assay method using MTT (3-(4, 5-dimethylthiazol-5-diphenyltetrazolium bromide; Himedia). In this assay, live cells reduce the dye leading to color formation which can be read at 570 nm, and the intensity of color can be correlated to number of live cells. 100 μL of PBS was added to the wells along with 10 μL of MTT solution. The plate was incubated for 2 h in the dark. After this, 110 μL of solvent solution solubilizing agent was added and the plate was incubated for 15 minutes at ambient temperature with gentle agitation. The absorbance was read at 570 nm in a microplate reader. Another set of four wells was processed for harvesting the biofilm and determination of CFUs present by plating on solid media. For biofilm inhibitory studies, the wells were washed twice with 1×PBS and challenged with various concentrations of P128 or other antibiotic drugs and incubated for 24 h at 37° C. The contents of the well was aspirated out and discarded. The biofilm adhered to the wells was quantified by MTT assay as described above. The MBIC was defined as the minimum concentration of P128 or the drug showing no colour development. […] In each experiment, in addition to the combination MBIC, the MBIC of each drug was also determined individually. The fractional MBIC concentrations were determined by MTT dye method as described above. The FICI and synergy was also calculated in a similar manner.
In order to determine whether P128 could synergize with known anti-Staphylococcus drugs to inhibit S. aureus in biofilms. […] The assays were performed in a 96 well checkerboard format using various concentrations of P128 and one of the antibiotics.

S. aureus = experiment: MIC and checkerboard synergy (broth microdilution) on planktonic cells; format: cell-based, Staphylococcus aureus; details: for MIC: Staphylococcus aureus
Method: MIC was determined using a modified Clinical and Laboratory Standards Institute (CLSI) broth microdilution procedure described earlier in Vipra, et al. (2012) “Antistaphylococcal activity of bacteriophage derived chimeric protein P128” BMC Microbiol. 12:41-50; and Clinical and Laboratory Standards Institute (2012) “Methods for Dilution Antimicrobial Susceptibility Tests for Bacteria That Grow Aerobically; Approved Standard” CLSI document M07-A9.9 ed. Wayne, Pa. USA. In order to determine effects of combinations of P128 with antibiotics, combinations of various dilutions of P128 and a second drug were tested for growth inhibition using a microdilution checkerboard technique. See Lu, et al. (2013) “In vitro activity of sodium new houttuyfonate alone and in combination with oxacillin or netilmicin against methicillin-resistant Staphylococcus aureus” PLoS One 8:e68053. Briefly, S. aureus culture at a final cell number of 5×10^5 CFU/mL was added to wells of 96-well microtiter plates (precoated with 0.5% BSA), containing two-fold dilutions of P128 and the second drug in cation adjusted Mueller Hinton Broth (CAMHB). The plates were incubated at 37° C. for 24 h and the individual MICs and the combination MICs were read. The fractional inhibitory concentration index (FICI) was determined using the following equation: FICI=(MIC of drug A in the combination/MIC of drug A alone)+(MIC of drug B in the combination/MIC of drug B alone). The combination was considered to be synergistic when the FICI was ≤0.5; additive when FICI was 0.5-1.0; indifferent when FICI was 1-4 and antagonistic when FICI≥4. The experiments were performed in triplicate and repeated twice.
In order to find out whether P128 can act in a synergistic manner with commonly used antibiotics, MIC based growth inhibition assays were performed. MIC based synergy was studied by checkerboard method by determining the FIC index using the method of Lu, et at (2013) “In vitro activity of sodium new houttuyfonate alone and in combination with oxacillin or netilmicin against methicillin-resistant Staphylococcus aureus” PLoS One 8:e68053. […] Similarly.
Bacterial cultures at a final cell number of 5×10^5 CFU/mL was added to wells of 96-well microtiter plates (precoated with 0.5% BSA), containing two-fold dilutions of P128 and the second drug in cation adjusted Mueller Hinton Broth (CAMHB). The plates were incubated at 37° C. for 24 h and the individual MICs and the combination MICs were read. The fractional inhibitory concentration index (FICI) was determined using the following equation: FICI=(MIC of drug A in the combination/MIC of drug A alone)+(MIC of drug B in the combination/MIC of drug B alone). The combination was considered to be synergistic when the FICI was ≤0.5; additive when FICI was 0.5-1.0; indifferent when FICI was 1-4 and antagonistic when FICI≥4.

[1] = Table 4, S. aureus ATCC 29213 preformed biofilm, 6 h
[2] = Table 4, S. aureus ATCC 29213 preformed biofilm, 24 h
[3] = Table 4, S. aureus B9241 preformed biofilm, 6 h
[4] = Table 4, S. aureus B9241 preformed biofilm, 24 h
[5] = Table 4, S. aureus BK1 preformed biofilm, 6 h
[6] = Table 4, S. aureus BK1 preformed biofilm, 24 h

CCCCCCCCCC(=O)N[C@@H](Cc1c[nH]c2ccccc12)C(=O)N[C@H](CC(N)=O)C(=O)N[C@@H](CC(=O)O)C(=O)N[C@@H]1C(=O)NCC(=O)N[C@@H](CCCN)C(=O)N[C@@H](CC(=O)O)C(=O)N[C@H](C)C(=O)N[C@@H](CC(=O)O)C(=O)NCC(=O)N[C@H](CO)C(=O)N[C@@H]([C@H](C)CC(=O)O)C(=O)N[C@@H](CC(=O)c2ccccc2N)C(=O)O[C@@H]1C [Daptomycin, daptomycin]
MIC (drug alone) on biofilm (S. aureus biofilms): 31.2 µg/mL | Activity on biofilms (S. aureus biofilms): relatively better activity

CC(=O)NC[C@H]1CN(c2ccc(N3CCOCC3)c(F)c2)C(=O)O1 [Linezolid, linezolid]
MIC (S. aureus; 24 h, LRSA strain B9456, read-out: MIC (drug alone)): > 32 µg/mL | MIC (S. aureus; 24 h, LRSA strain B9457, read-out: MIC (drug alone)): 8 µg/mL | MIC (drug alone) on biofilm (S. aureus biofilms): >500 µg/mL | Activity on biofilms (S. aureus biofilms): poorly effective

CN[C@H](CC(C)C)C(=O)N[C@H]1C(=O)N[C@@H](CC(N)=O)C(=O)N[C@H]2C(=O)N[C@H]3C(=O)N[C@H](C(=O)N[C@H](C(=O)O)c4cc(O)cc(O)c4-c4cc3ccc4O)[C@H](O)c3ccc(c(Cl)c3)Oc3cc2cc(c3O[C@@H]2O[C@H](CO)[C@@H](O)[C@H](O)[C@H]2O[C@H]2C[C@](C)(N)[C@H](O)[C@H](C)O2)Oc2ccc(cc2Cl)[C@H]1O [Vancomycin, vancomycin]
MIC (S. aureus; 24 h, read-out: MIC (drug alone), S. aureus B9241 (gentamycin and ciprofloxacin resistant)): 1 µg/mL | MIC (S. aureus; ATCC29213, read-out: MIC over the strains, ATCC29213, BK1 and B9241): 1 µg/mL | MIC (S. aureus; ATCC 29213 / MSSA, 24 h, read-out: MIC (drug alone), S. aureus ATCC 29213 (MSSA)): 1 µg/mL | MIC (S. aureus; MRSA, 24 h, read-out: MIC (drug alone), S. aureus BK1 (MRSA, ciprofloxacin resistant)): 1 µg/mL | MIC (S. aureus; VRSA, 24 h, read-out: MIC (drug alone), VRSA strain VRS 1): 32 µg/mL | MIC (S. aureus; VRSA, 24 h, read-out: MIC (drug alone), VRSA strain VRS 2): 32 µg/mL | MIC (S. aureus; VRSA, 24 h, read-out: MIC (drug alone), VRSA strain VRS 3a): 32 µg/mL | MIC (S. aureus; VRSA, 24 h, read-out: MIC (drug alone), VRSA strain VRS 3b): 32 µg/mL | MIC (S. aureus; VRSA, 24 h, read-out: MIC (drug alone), VRSA strain VRS 4): 32 µg/mL | MIC (S. aureus; VRSA, 24 h, read-out: MIC (drug alone), VRSA strain VRS 10): 16 µg/mL | MIC (drug alone) on biofilm (S. aureus biofilms): 250 µg/mL | Activity on biofilms (S. aureus biofilms): poorly effective | MBIC (individual) (S. aureus biofilms; [1]): 7.8 µg/mL | MBIC (individual) (S. aureus biofilms; [2]): 218.75 µg/mL | MBIC (individual) (S. aureus biofilms; [3]): 31.25 µg/mL | MBIC (individual) (S. aureus biofilms; [4]): 125 µg/mL | MBIC (individual) (S. aureus biofilms; [5]): 31.25 µg/mL | MBIC (individual) (S. aureus biofilms; [6]): 250 µg/mL

B1: P128: anti-staphylococcal chimeric protein: phage tail associated muralytic enzyme (TAME) cell wall-degrading region plus staphylococcus-specific binding region; SEQ ID NO: 1 (protein)
chain: MSLDSLKKYNGKLPKHDPSFVQPGNRHYKYQCTWYAYNRRGQLGIPVPLWGDAADWIGGAKGAGYGVGRTPKQGACVIWQRGVQGGSPQYGHVAFVEKVLDGGKKIFISEHNYATPNGYGTRTIDMSSAIGKNAQFIYDKKLETPNTGWKTNKYGTLYKSESASFTPNTDIITRTTGPFRSMPQSGVLKAGQTIHYDEVMKQDGHVWVGYTGNSGQRIYLPVRTWNKSTNTLGVLWGTIK
modifications: P128 chimera
MIC over the strains (S. aureus; ATCC29213, BK1 and B9241): 4 to 8 µg/mL | MIC (drug alone) (S. aureus; LRSA strain B9456): 2 µg/mL | MIC (drug alone) (S. aureus; LRSA strain B9457): 1 µg/mL | MIC (drug alone) (S. aureus; MRSA strain BK22): 0.45 µg/mL | MIC (drug alone) (S. aureus; S. aureus ATCC 29213 (MSSA)): 4 µg/mL | MIC (drug alone) (S. aureus; S. aureus B9241 (gentamycin and ciprofloxacin resistant)): 8 µg/mL | MIC (drug alone) (S. aureus; S. aureus BK1 (MRSA, ciprofloxacin resistant)): 4 µg/mL | MIC (drug alone) (S. aureus; S. aureus BK18): 2 µg/mL and 4 µg/mL | MIC (drug alone) (S. aureus; VRSA strain VRS 1): 1.9 µg/mL | MIC (drug alone) (S. aureus; VRSA strain VRS 2): 1.9 µg/mL | MIC (drug alone) (S. aureus; VRSA strain VRS 3a): 1.9 µg/mL | MIC (drug alone) (S. aureus; VRSA strain VRS 3b): 0.97 µg/mL | MIC (drug alone) (S. aureus; VRSA strain VRS 4): 1.9 µg/mL | MIC (drug alone) (S. aureus; VRSA strain VRS 10): 3.9 µg/mL | MBIC fold higher than planktonic MIC (S. aureus biofilms; 2 h assay, sensitive and resistant strains of S. aureus): 1-4 fold | MBIC (S. aureus biofilms; S. aureus 8325-4 biofilm, 2 h): 7.8 µg/mL | MBIC (S. aureus biofilms; S. aureus 8325-4 biofilm, 4 h): 15.6 µg/mL | MBIC (S. aureus biofilms; S. aureus 8325-4 biofilm, 6 h): 15.6 µg/mL | MBIC (S. aureus biofilms; S. aureus 8325-4 biofilm, 8 h): 31.25 µg/mL | MBIC (S. aureus biofilms; S. aureus 8325-4 biofilm, 24 h): 1000 µg/mL | MBIC (S. aureus biofilms; S. aureus ATCC 29213 biofilm, 2 h): 3.9 µg/mL | MBIC (S. aureus biofilms; S. aureus ATCC 29213 biofilm, 4 h): 15.6 µg/mL | MBIC (S. aureus biofilms; S. aureus ATCC 29213 biofilm, 6 h): 15.6 µg/mL | MBIC (S. aureus biofilms; S. aureus ATCC 29213 biofilm, 8 h): 15.6 µg/mL | MBIC (S. aureus biofilms; S. aureus ATCC 29213 biofilm, 24 h): 250 µg/mL | MBIC (S. aureus biofilms; S. aureus B9241 biofilm, 2 h): 15.6 µg/mL | MBIC (S. aureus biofilms; S. aureus B9241 biofilm, 4 h): 125 µg/mL | MBIC (S. aureus biofilms; S. aureus B9241 biofilm, 6 h): 125 µg/mL | MBIC (S. aureus biofilms; S. aureus B9241 biofilm, 8 h): 125 µg/mL | MBIC (S. aureus biofilms; S. aureus B9241 biofilm, 24 h): >1000 µg/mL | MBIC (S. aureus biofilms; S. aureus B9356 biofilm, 2 h): 7.8 µg/mL | MBIC (S. aureus biofilms; S. aureus B9356 biofilm, 4 h): 15.6 µg/mL | MBIC (S. aureus biofilms; S. aureus B9356 biofilm, 6 h): 31.25 µg/mL | MBIC (S. aureus biofilms; S. aureus B9356 biofilm, 8 h): 62 µg/mL | MBIC (S. aureus biofilms; S. aureus B9356 biofilm, 24 h): >1000 µg/mL | MBIC (S. aureus biofilms; S. aureus BK1 biofilm, 2 h): 15.6 µg/mL | MBIC (S. aureus biofilms; S. aureus BK1 biofilm, 4 h): 31.25 µg/mL | MBIC (S. aureus biofilms; S. aureus BK1 biofilm, 6 h): 31.25 µg/mL | MBIC (S. aureus biofilms; S. aureus BK1 biofilm, 8 h): 31.25 µg/mL | MBIC (S. aureus biofilms; S. aureus BK1 biofilm, 24 h): 1000 µg/mL | MIC (drug alone) on biofilm (S. aureus biofilms): 6.25 µg/mL | MBIC (individual) (S. aureus biofilms; [1]): 6.04 µg/mL | MBIC (individual) (S. aureus biofilms; [2]): 200 µg/mL | MBIC (individual) (S. aureus biofilms; [3]): 105.15 µg/mL | MBIC (individual) (S. aureus biofilms; [4]): >1000 µg/mL | MBIC (individual) (S. aureus biofilms; [5]): 28.95 µg/mL | MBIC (individual) (S. aureus biofilms; [6]): 400 µg/mL
